According to article PMC9019756:

What follows are sequences tested against T1, His6-PhoP (Actinosynnema pretiosum X47 (derived from A. pretiosum subsp. auranticum ATCC 31565)) (UniProt A0A290ZEW1) (assay: EMSA). Conditions: EMSA: 100 fmol biotin probe, binding buffer (composition not given), poly(dI-dC), 20-30 min at room temperature, 8% native PAGE; protein dialyzed in 50 mM ….
T1 sequence: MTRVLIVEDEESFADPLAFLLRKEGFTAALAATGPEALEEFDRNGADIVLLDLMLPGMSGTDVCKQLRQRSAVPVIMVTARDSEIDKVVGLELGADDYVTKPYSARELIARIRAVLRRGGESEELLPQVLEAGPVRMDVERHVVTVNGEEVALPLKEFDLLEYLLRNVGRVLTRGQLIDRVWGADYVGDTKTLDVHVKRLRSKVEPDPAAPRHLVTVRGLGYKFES
In the case of “GTGACTGGAGTTCCTTACCCCGATCCGGTGACCGGGGCCGGCGGCCCAGCCCCGGTCCCGCGATCCGCGAAAGCAGCCGCGAACCGCCGCTGACCTGGTCGAACGGCCCGCTGGAAGATCGCTTGAGCACCGCCGACGACGAGCGTCGACGCCCCCGCCCCGCAGCGGGCGGGGGCAGTCCCCCGTTGGAGTGCTCAGCTCCCCCCGGCGACGGCCGTACTAGGCGGCGGTCGTGTAGGGAAAGA (double strand) [fliM promoter probe]”, the binding is reported as “no binding”. For “GTGACTGGAGTTCCTTTTCGCGCAACAGCCGGTACCGGGTTCAGGTTAAACCGAGCAAGATAGCCCTAGAGGGGACACCAGCGGATACAGAGAGCAACAAAACAGGCACGTACAGAAGTCTTGTTAGCCCAGAAGGGTGATAAACGCCCCGATGTCGAGCGTTCCTCGCCACAGACACGTCACATCTGGCGAACTCGGTCGTTTGCTAGGCCGGGAAGGGAGAAGAGGGTAACGACGAGTCGTGTAGGGAAAGA (double strand) [ssgB promoter probe]”, the binding was “binds”. “TCTTTCCCTACACGACCGGCTTCCGTCCTTGGATGTCGGGCATCGGGCCCGTCCGTGGGTCCGTGGCGTTACAAACGGCAGTGCGCCTTCACTCCTGAGGGGGAACGAAGGGCGGCCAGGGTGGAGAAGGCCCGGCCGCCCGTCACCCGTAAGGAACTCCAGTCAC (double strand) [swrD promoter probe]” was tested, and the binding was “no binding”.
